Reference: PMC10570127 (The Journal of Biological Chemistry, 2023)

Columns and labels:
[1] = molecular target: T1, Sp_0475 (Streptococcus pneumoniae, UniProt A0A0H2UNN2); type: biochemical
T1 sequence (A0A0H2UNN2 1-646): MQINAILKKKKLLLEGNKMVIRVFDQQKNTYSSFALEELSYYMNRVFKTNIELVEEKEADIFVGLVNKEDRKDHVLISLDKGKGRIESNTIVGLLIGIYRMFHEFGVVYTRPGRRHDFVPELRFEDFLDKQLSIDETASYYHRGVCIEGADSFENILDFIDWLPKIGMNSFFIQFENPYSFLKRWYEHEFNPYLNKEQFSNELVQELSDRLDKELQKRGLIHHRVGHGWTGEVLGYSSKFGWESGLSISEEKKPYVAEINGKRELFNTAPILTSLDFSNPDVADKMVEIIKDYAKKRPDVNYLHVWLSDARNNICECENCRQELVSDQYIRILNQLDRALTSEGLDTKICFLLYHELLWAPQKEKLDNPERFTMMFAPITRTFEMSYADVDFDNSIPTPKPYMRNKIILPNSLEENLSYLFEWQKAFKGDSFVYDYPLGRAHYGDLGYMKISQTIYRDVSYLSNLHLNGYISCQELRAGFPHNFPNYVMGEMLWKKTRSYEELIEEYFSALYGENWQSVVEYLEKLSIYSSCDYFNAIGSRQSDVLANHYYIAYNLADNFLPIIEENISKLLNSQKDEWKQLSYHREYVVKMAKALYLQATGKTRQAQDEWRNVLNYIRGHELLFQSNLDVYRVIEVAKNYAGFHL

[2] = tested on: CC(=O)N[C@H]1[C@H](Oc2ccc([N+](=O)[O-])cc2)O[C@H](COS(=O)(=O)O)[C@@H](O)[C@@H]1O; experiment: Michaelis-Menten kinetics of hydrolysis by purified mutant; type: biochemical, Streptococcus pneumoniae; settings: active site; pH 7.0
[3] = tested on: CC(=O)N[C@H]1[C@H](Oc2ccc3c(C)cc(=O)oc3c2)O[C@H](COS(=O)(=O)O)[C@@H](O)[C@@H]1O; experiment: as above; type: biochemical, Streptococcus pneumoniae; settings: active site; pH 7.0
[4] = substrate: CC(=O)N[C@H]1[C@H](Oc2ccc([N+](=O)[O-])cc2)O[C@H](COS(=O)(=O)O)[C@@H](O)[C@@H]1O; experiment: purified protein; settings: active site; R633 interacts with the sulfate; pH 7.0
[5] = substrate: CC(=O)N[C@H]1[C@H](Oc2ccc3c(C)cc(=O)oc3c2)O[C@H](COS(=O)(=O)O)[C@@H](O)[C@@H]1O; experiment: purified protein; settings: active site; pH 7.0

`CC1=N[C@@H]2[C@@H](O)[C@H](O)[C@@H](CO)O[C@@H]2S1` [GlcNAc-thiazoline] showed a Ki [1] of 6.6 ± 0.2 mM.

Work on “Sp_0475 (Streptococcus pneumoniae TIGR4; D309A)” yielded a Km [2] of 4.0 ± 0.1 µM, a Km [3] of 1.5 ± 0.1 µM and a kcat [3] of 0.007 ± 0.0001 s⁻¹. For the same molecule, the kcat/Km [3] was 4000 ± 1000 M⁻¹ s⁻¹.

“Sp_0475 (Streptococcus pneumoniae TIGR4; Y436F)” showed a Km [2] of 57 ± 4 µM, a kcat [2] of 0.15 ± 0.002 s⁻¹ and a kcat/Km [2] of 3000 ± 500 M⁻¹ s⁻¹.

B1: Sp_0475 (Streptococcus pneumoniae TIGR4) (protein)
chain: MQINAILKKKKLLLEGNKMVIRVFDQQKNTYSSFALEELSYYMNRVFKTNIELVEEKEADIFVGLVNKEDRKDHVLISLDKGKGRIESNTIVGLLIGIYRMFHEFGVVYTRPGRRHDFVPELRFEDFLDKQLSIDETASYYHRGVCIEGADSFENILDFIDWLPKIGMNSFFIQFENPYSFLKRWYEHEFNPYLNKEQFSNELVQELSDRLDKELQKRGLIHHRVGHGWTGEVLGYSSKFGWESGLSISEEKKPYVAEINGKRELFNTAPILTSLDFSNPDVADKMVEIIKDYAKKRPDVNYLHVWLSDARNNICECENCRQELVSDQYIRILNQLDRALTSEGLDTKICFLLYHELLWAPQKEKLDNPERFTMMFAPITRTFEMSYADVDFDNSIPTPKPYMRNKIILPNSLEENLSYLFEWQKAFKGDSFVYDYPLGRAHYGDLGYMKISQTIYRDVSYLSNLHLNGYISCQELRAGFPHNFPNYVMGEMLWKKTRSYEELIEEYFSALYGENWQSVVEYLEKLSIYSSCDYFNAIGSRQSDVLANHYYIAYNLADNFLPIIEENISKLLNSQKDEWKQLSYHREYVVKMAKALYLQATGKTRQAQDEWRNVLNYIRGHELLFQSNLDVYRVIEVAKNYAGFHL
With B1 the Km [4] was 250 ± 4 µM, the kcat [4] was 65 ± 0.3 s⁻¹ and the kcat/Km [4] was 260000 ± 80000 M⁻¹ s⁻¹. For the same molecule, the Km [5] was 264 ± 7 µM, the kcat [5] was 55 ± 0.4 s⁻¹ and the kcat/Km [5] was 210000 ± 60000 M⁻¹ s⁻¹.
